Measured values taken from patent US20180044653A1, “Mutant Yeast Strain Capable of Degrading Cellobiose” (Institut National de la Recherche Agronomique, priority 2015, published 2018).

Key:
Assay in all cases: Enzyme kinetics on glycoside substrates, released glucose, Michaelis-Menten (Bgl1-His6)
Format in all cases: biochemical, Yarrowia lipolytica
Details in all cases: other: apparent, 0.120 nM Bgl1-His6, mean of three experiments, SD below 10%, pH 7.4, 28.0 °C
[1] = substrate: CCCCCCCCO[C@@H]1O[C@H](CO)[C@@H](O)[C@H](O)[C@H]1O
Protocol: (§1) Y. lipolytica JMY1212 overproducing Bgl1-His6 and Bgl2 were grown in 200 mL YTD medium at 130 rpm, 28° C. for 36 h before centrifugation at 8,000×g for 5 min. For purification of Bgl1-His6, the cell pellet was washed, suspended in 50 mL phosphate buffer (50 mM, pH 7.4) and homogenized over a 3-min period using a MP FastPrep-24 Instrument. After centrifugation (8,000×g for 5 min at 4° C.), the supernatant was applied to 2 mL of TALON Metal Affinity Resin (Clontech Takara-Bio, Kyoto, Japan) and protein was eluted using imidazole buffer according to the manufacturer's instructions.
(§2) When using aryl-substrates, the standard assay method was employed, simply replacing pNPGlc by another substrate as appropriate. For oligosaccharides, the release of glucose was quantified using an enzyme kit (D-Fructose/D-Glucose Assay Kit, liquid stable, Megazyme). […] Initial rates were fitted to the Michaelis-Menten kinetic equation using a nonlinear regression (SigmaPlot 10) to extract the apparent KM and kcat (Segel, 1993).

[2] = substrate: OC[C@H]1O[C@@H](OC[C@H]2OC(O)[C@H](O)[C@@H](O)[C@@H]2O)[C@H](O)[C@@H](O)[C@@H]1O
Protocol: as §1, §2

[3] = substrate: OC[C@H]1O[C@@H](O[C@H]2C(O)O[C@H](CO)[C@@H](O)[C@@H]2O)[C@H](O)[C@@H](O)[C@@H]1O
Protocol: as §1, §2

[4] = substrate: OC[C@H]1O[C@@H](O[C@H]2[C@H](O)[C@@H](CO)OC(O)[C@@H]2O)[C@H](O)[C@@H](O)[C@@H]1O
Protocol: as §1, §2

[5] = substrate: OC[C@H]1O[C@@H](O[C@H]2[C@H](O)[C@@H](O)C(O)O[C@@H]2CO)[C@H](O)[C@@H](O)[C@@H]1O
Protocol: as §1, §2

[6] = substrate: OC[C@H]1O[C@@H](O[C@H]2[C@H](O)[C@@H](O)[C@H](O[C@H]3[C@H](O)[C@@H](O)C(O)O[C@@H]3CO)O[C@@H]2CO)[C@H](O)[C@@H](O)[C@@H]1O
Protocol: as §1, §2

[7] = substrate: OC[C@H]1O[C@@H](O[C@H]2[C@H](O)[C@@H](O)[C@H](O[C@H]3[C@H](O)[C@@H](O)[C@H](O[C@H]4[C@H](O)[C@@H](O)C(O)O[C@@H]4CO)O[C@@H]3CO)O[C@@H]2CO)[C@H](O)[C@@H](O)[C@@H]1O
Protocol: as §1, §2

[8] = substrate: OC[C@H]1O[C@@H](O[C@H]2[C@H](O)[C@@H](O)[C@H](O[C@H]3[C@H](O)[C@@H](O)[C@H](O[C@H]4[C@H](O)[C@@H](O)[C@H](O[C@H]5[C@H](O)[C@@H](O)C(O)O[C@@H]5CO)O[C@@H]4CO)O[C@@H]3CO)O[C@@H]2CO)[C@H](O)[C@@H](O)[C@@H]1O
Protocol: as §1, §2

[9] = substrate: OC[C@H]1O[C@@H](O[C@H]2[C@H](O)[C@@H](O)[C@H](O[C@H]3[C@H](O)[C@@H](O)[C@H](O[C@H]4[C@H](O)[C@@H](O)[C@H](O[C@H]5[C@H](O)[C@@H](O)[C@H](O[C@H]6[C@H](O)[C@@H](O)C(O)O[C@@H]6CO)O[C@@H]5CO)O[C@@H]4CO)O[C@@H]3CO)O[C@@H]2CO)[C@H](O)[C@@H](O)[C@@H]1O
Protocol: as §1, §2

B1: Yarrowia lipolytica β-glucosidase Bgl1-His6 (YALI_BGL1, YALI0F16027g, SEQ ID NO: 4; mature SEQ ID NO: 1), His6-tagged (Yarrowia lipolytica CLIB122) (protein)
chain: SPDWYPTPEIGSITSDWADALGESMDILAQLTLPEKVNITTGTGWRGGQCVGNTGAVPRLGIKGLCLQDGPLGVRFADFVNVFPCQNAMAATFDRILVHQRGTAIGRQSRLKGVDVHLGPVVGPLGRHATGGRNWEGFSPDPYLSGKLAFEAILGVQEEGVLATIKHFIGNEQEHYRRAEEWRDGFGFKDLKDAVSSNIEDRALHELYMWPFADAVRANVGSVMCSYNYVNGTQACQNSDLLNGKLKSELGFQGFVMSDWFAQGSGVSNALAGMDMSMPGNDVDELETVFWGEQLTRMVANGTLPEARLDDMVLRILTPLIYFGIDDRTPNFSSFVDTTVGSPHPAAKHSKKVKDVITNYHLDVRDQFAANVALDSARGAVVLLFNDGILPLKNISAIGVFGVGSRLGPNGAVCGENMQCSDGALIEGWGSGTAYPTEYESPYEALHKKASLLEVSVTGTTESWDMRLPLELAGDTDVNIVYVLANSGESTANVDKNLGDRRNVSLWHNGDELINTVASQGQTVVVVTTVGQVDMTAWLNHPNISAVLLTAPAGDYGGKAIADVLFGEVNPSGKLPYTIAANTSDYIPIVTKIPRDGAPQSDFVEGIYLDYKWYDKFERTPLYEFGYGLSYTTYSFSNLHLDVKEISEFLPPRPVPVQVTKPKMTNIDIEDLYVPNDFKMIDGLVYPWILNASAPLADSQTQFPFANGAGHVSDASGGVGGHPWLWSNAVTVTHNTTNCGDVAGRVVSQLYVAFPETLIDSPPVQLRGFDKSKLLNPGESQMTEYNLNWRDLAIWDVELQSWRVQRGEYSVYIGHSSREFELCETFTL
Km [1]: 860 µM | kcat [1]: 32.8 s⁻¹ | kcat/Km [1]: 38100 M⁻¹ s⁻¹ | Km [2]: 1160 µM | kcat [2]: 43.6 s⁻¹ | kcat/Km [2]: 37600 M⁻¹ s⁻¹ | Km [3]: 2250 µM | kcat [3]: 28.4 s⁻¹ | kcat/Km [3]: 14800 M⁻¹ s⁻¹ | Km [4]: 680 µM | kcat [4]: 75.6 s⁻¹ | kcat/Km [4]: 111000 M⁻¹ s⁻¹ | Km [5]: 260 µM | kcat [5]: 21.1 s⁻¹ | kcat/Km [5]: 81100 M⁻¹ s⁻¹ | Km [6]: 430 µM | kcat [6]: 20.5 s⁻¹ | kcat/Km [6]: 47700 M⁻¹ s⁻¹ | Km [7]: 1890 µM | kcat [7]: 30.9 s⁻¹ | kcat/Km [7]: 16300 M⁻¹ s⁻¹ | Km [8]: 2180 µM | kcat [8]: 29.5 s⁻¹ | kcat/Km [8]: 13500 M⁻¹ s⁻¹ | Km [9]: 3010 µM | kcat [9]: 31.5 s⁻¹ | kcat/Km [9]: 10500 M⁻¹ s⁻¹
